T1: Lamin B1 (human (endogenous in MCF10A and MDA-MB-231)), P20700
T1 chain: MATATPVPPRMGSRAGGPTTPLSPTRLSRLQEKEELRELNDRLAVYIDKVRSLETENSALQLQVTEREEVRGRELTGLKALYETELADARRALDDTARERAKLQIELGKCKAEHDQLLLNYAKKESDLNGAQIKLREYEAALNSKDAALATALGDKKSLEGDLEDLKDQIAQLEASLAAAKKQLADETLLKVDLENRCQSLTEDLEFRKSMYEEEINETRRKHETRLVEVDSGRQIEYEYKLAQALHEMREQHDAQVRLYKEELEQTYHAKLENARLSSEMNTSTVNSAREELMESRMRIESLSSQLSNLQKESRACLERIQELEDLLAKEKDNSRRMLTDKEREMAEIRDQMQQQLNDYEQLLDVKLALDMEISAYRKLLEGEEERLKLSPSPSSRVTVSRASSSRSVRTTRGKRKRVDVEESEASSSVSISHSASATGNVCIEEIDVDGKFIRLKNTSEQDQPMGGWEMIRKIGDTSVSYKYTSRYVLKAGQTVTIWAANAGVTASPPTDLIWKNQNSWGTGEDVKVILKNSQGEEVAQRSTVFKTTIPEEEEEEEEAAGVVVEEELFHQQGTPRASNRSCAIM

B1: Lamin B1, P20700 1-586 (natural protein)
chain: T1 chain
B2: SUN2 (natural protein, UniProt Q9UH99-2 1-738, looked up)
chain: MSRRSQRLTRYSQGDDDGSSSSGGSSVAGSQSTLFKDSPLRTLKRKSSNMKRLSPAPQLGPSSDAHTSYYSESLVHESWFPPRSSLEELHGDANWGEDLRVRRRRGTGGSESSRASGLVGRKATEDFLGSSSGYSSEDDYVEDSEGRGSKVTETEPVSSFPAGYSDVDQQSSSSRLRSAVSRAGSLLWMVATSPGRLFRLLYWWAGTTWYRLTTAASLLDVFVLTRRFSSLKTFLWFLLPLLLLTCLTYGAWYFYPYGLQTFHPALVSWWAAKDSRRPDEGWEARDSSPHFQAEQRVMSRVHSLERRLEALAAEFSSNWQKEAMRLERLELRQGAPGQGGGGGLSHEDTLALLEGLVSRREAALKEDFRRETAARIQEELSALRAEHQQDSEDLFKKIVRASQESEARIQQLKSEWQSMTQESFQESSVKELRRLEDQLAGLQQELAALALKQSSVAEEVGLLPQQIQAVRDDVESQFPAWISQFLARGGGGRVGLLQREEMQAQLRELESKILTHVAEMQGKSAREAAASLSLTLQKEGVIGVTEEQVHHIVKQALQRYSEDRIGLADYALESGGASVISTRCSETYETKTALLSLFGIPLWYHSQSPRVILQPDVHPGNCWAFQGPQGFAVVRLSARIRPTAVTLEHVPKALSPNSTISSAPKDFAIFGFDEDLQQEGTLLGKFTYDQDGEPIQTFHFQAPTMATYQVVELRILTNWGHPEYTCIYRFRVHGEPAH
notes: SUN2, human, endogenous in MCF10A and MDA-MB-231 cells; detected as a ~80 kDa monomer; Free cysteines were alkylated with 20 mM N-ethylmaleimide when the lysate was made; Which isoform the cells express was not determined; also called SUN-domain protein SUN2

Assays:
[1] = biological target: T1, Lamin B1 (human (endogenous in MCF10A …)); assay: non-reducing SDS-PAGE with Western blot; MCF10A cell lysate with 20 mM N-ethylmaleimide, without β-mercaptoethanol, 4 min at 50 °C, 4–12% gradient gel; shows only disulphide-linked species; conditions: remark: other sources report otherwise
[2] = biological target: the molecule itself; assay: as above

Binder | stoichiometry N [1] | ratio of the >140 kDa SUN2 signal to the SUN2 monomer signal [2] | stoichiometry N [2]
B1 | 2 | – | –
B2 | – | ~1 | 2
